Test [1] deals with Serratia NucC (type III-A CRISPR-Cas-associated accessory nuclease of Serratia sp. ATCC 39006) (Serratia sp. ATCC 39006). Kind of test: crystal structure.
For test [2] the target is unchanged. As to the kind of experiment: crystal structure. The source holds these as a separate data set.

Where two headings read alike, the source gives them in different places.

Turning to “Serratia NucC (type III-A CRISPR-Cas-associated accessory nuclease of Serratia sp. ATCC 39006) (enzyme)”, the stoichiometry N in test [1] and in test [2] was 6 throughout.

For orientation: stoichiometry N means the number of molecules, sites or subunits per partner or assembly.

Values taken from publication doi:10.1101/2022.06.20.496707.
